In PMC2115152 (The Journal of Cell Biology, 1988):

Biological target: F-actin (rabbit, UniProt P68135 1-377)
Assay: co-sedimentation

B1: 83-kD nonmuscle caldesmon (natural protein)
chain: MLSRSGSQGRRCLATLSQIAYQRNDDDEEEAARERRRRARQERLRQKQEEESLGQVTDQVEAHVQNSAPDEESKPATANAQVEGDEEAALLERLARREERRQKRLQEALERQKEFDPTITDGSLSVPSRRMQNNSAENETAEGEEKGESRSGRYEMEETEVVITSYQKNSYQDAEDKKKEEKEEEEEEEKLKGGNLGENQIKDEKIKKDKEPKEEVKNFLDRKKGFTEVKAQNGEFMTHKLKQTENAFSPSRSGGRASGDKEAEGAPQVEAGKRLEELRRRRGETESEEFEKLKQKQQEAALELEELKKKREERRKVLEEEEQRRKQEEADRKAREEEEKRRLKEEIERRRAEAAEKRQKMPEDGLSEDKKPFKCFTPKGSSLKIEERAEFLNKSVQKSGVKSTHQAAVVSKIDSRLEQYTNAIEGTKASKPMKPAASDLPVPAEGVRNIKSMWEKGSVFSSPSASGTPNKETAGLKVGVSSRINEWLTKSPDGNKSPAPKPSDLRPGDVSGKRNLWEKQSVDKVTSPTKV
- stoichiometry N: ~6 actin monomers per 83-kD protein
